Holding throughout (conditions): both partners purified
For test [1], the target named is T1, furin-resistant mouse proNGF (mouse, UniProt P01139 122-241).
T1 chain: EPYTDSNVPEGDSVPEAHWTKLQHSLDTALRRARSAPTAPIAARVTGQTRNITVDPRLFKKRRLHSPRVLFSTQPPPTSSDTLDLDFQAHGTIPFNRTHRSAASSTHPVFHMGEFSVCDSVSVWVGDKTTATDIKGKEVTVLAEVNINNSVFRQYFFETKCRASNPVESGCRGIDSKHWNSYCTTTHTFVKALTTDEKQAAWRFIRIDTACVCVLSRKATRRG
The test can be described thus: SPR; equilibrium binding, IBIS MX96; NGF, proNGF and proBDNF amine-coupled, s-sortilin as analyte; 25 mM MES pH 5.0, 150 mM NaCl, 0.005% Tween 20, 25 °C; 1:1 Langmuir model. Background: SPR reads the build-up and loss of mass on a sensor chip optically.

Test [2] has as its target T2, Nerve Growth Factor (NGF), mouse (mouse, UniProt P01139 122-241).
T2 construct: Mouse NGF purified from submaxillary glands; the mature neurotrophin as against proNGF; also called Mouse NGF; source: bought: Biorad (purified from submaxillary glands)
The test is described as above.

Test [3] has as its target T1, furin-resistant mouse proNGF. Nature of the test: SPR; equilibrium binding, IBIS MX96; NGF, proNGF and proBDNF amine-coupled, s-sortilin as analyte; 25 mM HEPES pH 7.4, 150 mM NaCl, 0.005% Tween 20, 25 °C; 1:1 Langmuir model.
For test [4], the target named is T2, Nerve Growth Factor (NGF), mouse. The test is described as above.
Test [5] has as its target T3, Mouse s-sortilin A464E, native glycans (mouse).
T3 construct: Sortilin (Sort1), mouse, luminal segment, residues 1-722 with A464E; secreted with a cystatin signal peptide; Same limits as Dm1; also called A464E s-sortilin; source: HEK293-E, secreted, purified (Ni-NTA, SEC)
The test can be described thus: SPR; MX96 (IBIS); NGF, proNGF and proBDNF amine-coupled to a P-COOH SensEye sensor, s-sortilin flowed over as analyte; 25 mM MES pH 5.0, 150 mM NaCl, 0.005% Tween 20, 25 °C; equilibrium binding, 1:1 Langmuir model.

B1: s-sortilin A464E (dimerization interface mutant of the mouse sortilin luminal segment) (domain or fragment)
chain: RRGAPAEDQDCGRLPDFIAKLTNNTHQHVFDDLSGSVSLSWVGDSTGVILVLTTFQVPLVIVSFGQSKLYRSEDYGKNFKDITNLINNTFIRTEFGMAIGPENSGKVILTAEVSGGSRGGRVFRSSDFAKNFVQTDLPFHPLTQMMYSPQNSDYLLALSTENGLWVSKNFGEKWEEIHKAVCLAKWGPNNIIFFTTHVNGSCKADLGALELWRTSDLGKTFKTIGVKIYSFGLGGRFLFASVMADKDTTRRIHVSTDQGDTWSMAQLPSVGQEQFYSILAANEDMVFMHVDEPGDTGFGTIFTSDDRGIVYSKSLDRHLYTTTGGETDFTNVTSLRGVYITSTLSEDNSIQSMITFDQGGRWEHLRKPENSKCDATAKNKNECSLHIHASYSISQKLNVPMAPLSEPNAVGIVIAHGSVGDEISVMVPDVYISDDGGYSWAKMLEGPHYYTILDSGGIIVAIEHSNRPINVIKFSTDEGQCWQSYVFTQEPIYFTGLASEPGARSMNISIWGFTESFITRQWVSYTVDFKDILERNCEEDDYTTWLAHSTDPGDYKDGCILGYKEQFLRLRKSSVCQNGRDYVVAKQPSVCPCSLEDFLCDFGYFRPENASECVEQPELKGHELEFCLYGKEEHLTTNGYRKIPGDKCQGGMNPAREVKDLKKKCTSNFLNPTKQNSKSN
modifications: native glycans (HEK293-E)
On to B1, for which the “fold reduction of binding at pH 5.0 against pH 7.4” value in test [1] and in test [2] was 2 fold in each case. Moreover, the Kd (usually the constant that tells how readily two partners part at equilibrium) in test [3] was found to be 810 nM; in test [4], 320 nM.

B2: Furin-resistant mouse proNGF (ligand)
chain: EPYTDSNVPEGDSVPEAHWTKLQHSLDTALAAARSAPTAPIAARVTGQTRNITVDPRLFKKAALHSPRVLFSTQPPPTSSDTLDLDFQAHGTIPFNRTHRSAASSTHPVFHMGEFSVCDSVSVWVGDKTTATDIKGKEVTVLAEVNINNSVFRQYFFETKCRASNPVESGCRGIDSKHWNSYCTTTHTFVKALTTDEKQAAWRFIRIDTACVCVLSRKATRRG
B2 displayed a Kd in test [5] of 2280 ± 260 nM.

For the origin of these results see PMC5700061 (Nature Communications, 2017).
